Assay results as given in publication PMC3182237, “Downregulation of the Hsp90 System Causes Defects in Muscle Cells of Caenorhabditis Elegans” (PLoS ONE, 2011).
Blank lines part the entries; values can stand above or below the binder they belong to.

Experiments:
Settings in all cases: both partners purified
DAF-21 [1] = target: T1, DAF-21 (C. elegans, UniProt Q18688 1-702); assay: AUC; sedimentation velocity with fluorescence detection; fluorescein-labelled cofactor 300 nM, DAF-21 or variant 6 µM; with 4 mM AMP-PNP; 20 to 22°C, 42.000 r.p.m.; dc/dt analysis
T1 construct: DAF-21, the Hsp90 homolog of Caenorhabditis elegans; also called Hsp90; wt-DAF-21; source: E. coli BL21-CodonPlus (DE3)-RIL, purified (HisTrap FF, ResourceQ, Superdex SEC); not shown: His tag (from the vector pET28b)

E292K-DAF-21 [2] = target: T2, E292K-DAF-21 (C. elegans, UniProt Q18688 1-702, E292K); assay: as above
T2 construct: DAF-21, the Hsp90 homolog of Caenorhabditis elegans, with the point mutation of the allele daf-21(p673); The mutation occurs in the nematode strain JT6130 (daf-21(p673)); The recombinant variant was made from the daf-21 cDNA; also called E292K variant; DAF-21 of daf-21(p673), strain JT6130; source: E. coli BL21-CodonPlus (DE3)-RIL, purified (HisTrap FF, ResourceQ, Superdex SEC); not shown: His …

DAF-21 [3] = target: T1, DAF-21; assay: AUC; sedimentation velocity with fluorescence detection; fluorescein-labelled cofactor 300 nM, DAF-21 or variant 6 µM; no nucleotide; 20 to 22°C, 42.000 r.p.m.; dc/dt analysis
E292K-DAF-21 [4] = target: T2, E292K-DAF-21; assay: as above

binding result (DAF-21 [1]): binds
binding result (E292K-DAF-21 [2]): binds
B1: Cep23 (ZC395.10), fluorescein-labelled (natural protein, C. elegans, UniProt Q23280 1-175, looked up)
chain: MAKQPTVLWAQRESLVYLTIEVDEAKIEELKGEGNKLHFQGSSKTDKYEATLEFFDEIDPASVKHTGSSTRVVEITVQKKTPAWWPRLLQNKGKVHWLKVDFGKWKDEDEDDEAEDAGAGIGGGMANGFDLNQYMSQMGGAGGADFGGLEDDEEDDDMPDLEDNEEEEGKNGTRA
modifications: 5-carboxyfluorescein (N-succinimidyl ester) at lysine residues
notes: Cep23, the p23 cofactor of Hsp90 in Caenorhabditis elegans (ZC395.10); also called Labelled Cep23; source: E. coli BL21-CodonPlus (DE3)-RIL, purified (HisTrap FF, ResourceQ, Superdex SEC); not shown: His tag (from the vector pET28b)

binding result (DAF-21 [3]): binds
binding result (E292K-DAF-21 [4]): binds
B2: STI-1, fluorescein-labelled (natural protein, C. elegans, UniProt O16259 1-320, looked up)
chain: MTDAAIAEKDLGNAAYKQKDFEKAHVHYDKAIELDPSNITFYNNKAAVYFEEKKFAECVQFCEKAVEVGRETRADYKLIAKAMSRAGNAFQKQNDLSLAVQWFHRSLSEFRDPELVKKVKELEKQLKAAERLAYINPELAQEEKNKGNEYFKKGDYPTAMRHYNEAVKRDPENAILYSNRAACLTKLMEFQRALDDCDTCIRLDSKFIKGYIRKAACLVAMREWSKAQRAYEDALQVDPSNEEAREGVRNCLRSNDEDPEKAKERSLADPEVQEILRDPGMRMILEQMSNDPGAVREHLKNPEIFQKLMKLRDAGVIQMR
modifications: 5-carboxyfluorescein (N-succinimidyl ester) at lysine residues
notes: STI-1, TPR-containing cofactor of Hsp90 in Caenorhabditis elegans; also called labelled STI-1; source: E. coli BL21-CodonPlus (DE3)-RIL, purified (HisTrap FF, ResourceQ, Superdex SEC); not shown: His tag (from the vector pET28b)
